{"source": "paper PMC10094033", "about": "“pilE G-Quadruplex Is Recognized and Preferentially Bound but Not Processed by the MutL Endonuclease from Neisseria gonorrhoeae Mismatch Repair Pathway”", "binders": {"B1": {"name": "41pilG4/41M (dsDNA)", "DNA 1": "ACGCGTTAGAATAGGGTGGGTTGGGTGGGGAATTTTCTATT", "DNA 2": "AATAGAAAATTCCCCACCCAACCCACCCTATTCTAACGCGT"}, "B2": {"name": "95pilG4/95M (dsDNA)", "DNA 1": "GTCGGAATTTGAGATTTTTGAATTTACGCGTTAGAATAGGGTGGGTTGGGTGGGGAATTTTCTATTTTTTAAAAAGCTCCGTTTTCTTGGAAAGC", "DNA 2": "GCTTTCCAAGAAAACGGAGCTTTTTAAAAAATAGAAAATTCCCCACCCAACCCACCCTATTCTAACGCGTAAATTCAAAAATCTCAAATTCCGAC"}, "B3": {"name": "95G4/76M (mixed)", "DNA 1": "ATAGGACGCTGACACTGGTGCTTGGCAGCTGAGCCATATTTGGGTGGGTGGGTGGGTTGCTCGAGTAACGCTCATAGGATCCAAGCGCGAAAGGA", "DNA 2": "TCCTTTCGCGCTTGGATCCTATGAGCGTTACTCGAGCATATGGCTCAGCTGCCAAGCACCAGTGTCAGCGTCCTAT"}}, "key": {"[1]": {"target": "T1, ngMutL (Neisseria gonorrhoeae, UniProt Q5F8M6 1-658)", "T1 sequence": "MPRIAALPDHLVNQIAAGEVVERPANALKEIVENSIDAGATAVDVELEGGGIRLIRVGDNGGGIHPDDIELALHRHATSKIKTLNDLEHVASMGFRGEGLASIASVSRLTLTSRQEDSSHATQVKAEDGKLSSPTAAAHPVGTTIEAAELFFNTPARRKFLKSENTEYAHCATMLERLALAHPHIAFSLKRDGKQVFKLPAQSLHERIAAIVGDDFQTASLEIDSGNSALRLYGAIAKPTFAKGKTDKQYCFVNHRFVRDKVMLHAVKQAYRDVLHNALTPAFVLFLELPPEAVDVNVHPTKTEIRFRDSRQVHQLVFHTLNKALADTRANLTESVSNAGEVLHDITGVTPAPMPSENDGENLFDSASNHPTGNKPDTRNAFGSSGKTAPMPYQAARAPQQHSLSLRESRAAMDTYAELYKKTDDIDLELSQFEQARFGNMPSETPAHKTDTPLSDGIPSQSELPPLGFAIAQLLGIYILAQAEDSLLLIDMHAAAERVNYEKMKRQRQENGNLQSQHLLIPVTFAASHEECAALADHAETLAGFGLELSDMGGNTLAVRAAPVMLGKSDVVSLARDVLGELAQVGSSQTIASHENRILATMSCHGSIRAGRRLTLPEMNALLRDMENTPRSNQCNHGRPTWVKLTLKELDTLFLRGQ", "experiment": "EMSA; apparent Kd, per dimer; no ATP; 20 mM HEPES pH 8.0, 100 mM KCl, 0.5 mg/mL BSA, 1 mM DTT, 20 nM DNA, 15-1000 nM ngMutL dimer, 10 min on ice; 6% native PAGE in TAE at 4 C", "settings": "protein: recombinant, tags: N-terminal His6, chain copies: 2, label: 3'-TAMRA on strand 1, blunt"}, "[2]": {"target": "T1, ngMutL", "experiment": "EMSA; increasing ATP; binding not significantly reduced by ATP; 20 mM HEPES pH 8.0, 100 mM KCl, 0.5 mg/mL BSA, 1 mM DTT, 20 nM DNA, 15-1000 nM ngMutL dimer, 10 min on ice; 6% native PAGE in TAE at 4 C", "settings": "protein: recombinant; tags: N-terminal His6; chain copies: 2; label: 3'-TAMRA on strand 1; duplex with unpaired G4 insert in strand 1, blunt ends"}}, "data": [{"binder": "B1", "values": [{"measurement": "Kd", "setting": "[1]; G4 may be partially preserved by CD", "result": 650, "unit": "nM"}]}, {"binder": "B2", "values": [{"measurement": "Kd", "setting": "[1]", "result": 123, "unit": "nM"}]}, {"binder": "B3", "values": [{"measurement": "binding result", "setting": "[2]", "result": "binds"}]}]}
